According to PMC314469, “Protein Interaction Networks by Proteome Peptide Scanning” (PLoS Biology, 2004):

T1: Abp1 SH3 (ABP1_YEAST), P15891
T1 chain: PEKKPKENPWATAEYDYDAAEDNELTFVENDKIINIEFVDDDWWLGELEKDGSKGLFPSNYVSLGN


Biological target: T1, Abp1 SH3 (ABP1_YEAST), P15891
Experiment: SPOT array

Binder | normalised SPOT signal, Boehringer light units (BLU); mean over the file's lines of this peptide
ESFSSGSLSPPSRP [YDR348C 88-101] | 48.8
ESIDASKPEKVKP [YFL025C 369-381] | 132
ESKLSSLIIPPSKP [YJL193W 97-110] | 105
ESKMSLAPHEYKP [YGR097W 219-231] | 97.4
ESLKLYYRHRPQKP [YOL164W 141-154] | 146
ESLNLQFQAHPPKP [YKR050W 395-408] | 27.2
ETELGHVPLVERP [YDL079C 472-484] | 136
ETGVSIKNPRPSRP [YPR096C 4-17] | 615
ETLWDLPPKFPEKP [YDR444W 182-195] | 55.6
ETQPIQNFQPPPKP [YBR108W 650-663] | 82.5
ETVTNSGGLQPLKP [YOR329C 474-487] | 54.3
EVPMFVNPANAKP [YHL038C 181-193] | 70.8
EVRDLWLSILPTKP [YBR115C 851-864] | 86.6
EVRKVYIPKVVKP [YJR143C 526-538] | 250
EVVKILRESNPPRP [YJR010W 379-392] | 39.2
EYGHHARPDSKRP [YMR268C 2-14] | 61.2
EYKYSRPPYNFKP [YBR043C 498-510] | 155
EYLDQKNPQKEKP [YDR293C 662-674] | 52.7
FAEKVGYPVLVRP [YJL130C 1124-1136] | 85.3
FASDSLLDLSPIKP [YCL018W 111-124] | 73.8

Binder | normalised SPOT signal, Boehringer light units (BLU); mean over the file's lines of this peptide
FASKVNYPVLIRP [YJR109C 723-735] | 156
FSYPISSPINFKP [YPR164W 96-108] | 115
FDGKPTATPSPFRP [YMR153W 197-210] | 101
FDIVFPAPKGKRP [YBR034C 258-270] | 284
FDKKNETPRKRKP [YBL046W 314-326] | 173
FDSQFSAPFNGRP [YBL014C 791-803] | 168
FDYIVTREFRPTKP [YOR131C 125-138] | 83.2
FEEPEDFLPPPPKP [YLR285W 14-27] | 55.3
FEKGPRMPSRGRP [YPR171W 143-155] | 2280
FEMVTEVPIPRRP [YGR156W 132-144] | 526
FFPNVNSPSVNKP [YNR045W 370-382] | 101
FFQLPPVSKDPNRP [YML061C 379-392] | 186
FGLEQISPAQKKP [YDL217C 6-18] | 63
FIDDLKQPKYVRP [YPL070W 96-108] | 48.4
FIDPSLRPIIVKP [YPR056W 253-265] | 10.5
FINVSHSPLVPKP [YHR034C 60-72] | 76.6
FIQQMMDPSKAKP [YPL082C 1249-1261] | 230
FKRAGLIPIRLRP [YDR072C 45-57] | 411
FKRSIGASHAPLKP [YER161C 100-113] | 145
FKVMVANPRKSKP [YKL189W 299-311] | 2270

Binder | normalised SPOT signal, Boehringer light units (BLU); mean over the file's lines of this peptide
FLDVLKIKPLPYKP [YER093C 581-594] | 316
FLHGNTNAPTPLRP [YPR099C 84-97] | 63
FLNDVEEEESPVKP [YLL021W 576-589] | 123
FLSIHFPTDYPFKP [YBR082C 52-65] | 95.8
FNGNSRLMMIPKKP [YDL073W 594-607] | 4150
FNKTRFVPGSNKP [YPL272C 132-144] | 831
FNTPVDSPSVSRP [YER040W 639-651] | 94.4
FNVPSQKPLNSKP [YHR103W 279-291] | 955
FNVQDVRPDLFRP [YDR080W 297-309] | 100
FPDWSMGPNSAKP [YPL089C 527-539] | 238
FPPNEAPMLSPQRP [YLR006C 159-172] | 35
FQFLNNTPKMLKP [YLR190W 87-99] | 246
FQLIYFFPDLIKP [YOL107W 265-277] | 28.8
FQLPTRLPAFERP [YDL150W 307-319] | 353
FQVVLDTPQGLKP [YFR037C 187-199] | 103
FREPERKTSVPVRP [YIL156W 221-234] | 773
FRGDYGNNISPERP [YAL017W 277-290] | 106
FSAAEIWPTKGKP [YMR228W 229-241] | 158
FSDKNTIPPNEKP [YPR022C 372-384] | 147
